Experimental data taken from the RNAGym collection of RNA variant scans (doi:10.7554/elife.90254).

B1: OR4K15 (parent)
chain: GUUAACGGUCAUAGGCCAUGGAAACUAGGAGCACCAUUUCGCUGCCAGUGAAGAAAUGAACAAAGAAAAUCUGGGCCAGGCAGGCAUCAAAAGAAAUAGUCUUGCGCUCAACCAGAAAGUCUGUAAUCAUUUUAAGGGUA

Variants of: B1
Assay: self-cleavage, relative activity (ratio to wild type); higher = more cleavage; in vitro, sequencing; the parent is a self-cleaving ribozyme

Variant | self-cleavage
G48A A92G | 2.02
A47U A55G | 0.6
A47C U87C | 1.76
A47U U70C | 0.13
A47U U70G | 1.16
U43C A118U | 0.87
U43C A118C | 1.4
U43A A96U | 1.72
G48A A51G | 2.22
U43C U103G | 0.01
A47G U120A | 1.21
U43G A66G | 1.69
U43C A51G | 1.14
A47U G99A | 0.23
U43C A59C | 0.12
U43C A59U | 1.48
C45U U122G | 2.74
C45G | 1.37
C45A | 1.6
C45U | 1.72
G44U A64G | 1.19
U43C U102A | 1
U43C U102C | 2.15
C45G U102C | 1.48

Variant | self-cleavage
G48A A64U | 1.63
U43C A54G | 1.4
U43C A54U | 0.85
C46A A60U | 1.27
A47G G138A | 1.31
U43A U132A | 1.41
U43A U132C | 1.86
A47G U130C | 0.33
U43C G79U | 0.12
U43C | 1.29
U43G | 1.7
A47U A116C | 0.05
C46U U122A | 1.22
A47G A94G | 0.82
A47U A111G | 0.04
A47U A59U | 0.57
C46U | 1.54
C46A | 1.44
C46G | 1.46
A47G C105A | 0.07
G44A A110G | 0.14
U43C U49C | 1.22
U43C A111G | 0.02
A47U A60G | 0.42

Variant | self-cleavage
C45A A98U | 1.6
U43A U57C | 1.15
A47G A116G | 0.35
A47G A116C | 0.03
A47G A60G | 0.74
C45U A86U | 1.17
C45G A116G | 0.77
C46U U72C | 0.21
U43C A114U | 0.05
U43C A114C | 0.03
A47U A62U | 1.36
A47C A68G | 0.55
C45U U103C | 0.54
U43C A56G | 1.18
C46U C85U | 1.36
G44A G84U | 0.93
U43C U122C | 0.81
U43C U122A | 1.34
A47U U133C | 0.97
G44C A117G | 1.69
A47G G58C | 0.97
A47G G58A | 0.52
A47U A95G | 1.25
U43C U57G | 0.87

Variant | self-cleavage
A47U U124C | 0.5
A47U A98U | 1.79
A47G A63U | 1.03
A47G U72C | 0.35
A47G U72A | 0.09
G44A U122C | 1.67
A47U A78C | 0.08
A47U A78G | 0.17
U43A U100C | 2.43
A47C A129G | 0.74
C46U A67U | 2.2
G44A A134U | 0.73
A47G A51G | 0.9
A47G A64G | 1.17
A47G A118G | 0.41
C45U A126G | 0.97
A47G A66U | 1.11
A47G A66G | 0.23
G44A U102A | 1.56
G44A U102C | 2.14
U43C A89C | 1.36
U43C A78U | 0.4
U43A U70G | 1.12
U43A U70C | 0.98

Variant | self-cleavage
A47U G106U | 0.01
A47U G106A | 0.01
U43C C71A | 0.32
U43A U102C | 2.2
U43A U102A | 0.78
A47G A91G | 0.69
U43A U122G | 2.29
C46U U127C | 0.86
A47G A98G | 0.3
A47G A98U | 0.85
A47U A69G | 0.73
A47G U102A | 0.78
A47G U102G | 0.41
A47G U102C | 1.25
C46U A59G | 1.81
G44A A82U | 0.23
A47C U108C | 0.02
U43A U139G | 2.1
U43A U139C | 2.42
U43C A135U | 0.71
U43C A135G | 2.01
U43C G93A | 2.44
C45U A56C | 0.67
U43C G74C | 0.23

Variant | self-cleavage
C46U U130C | 1.4
C46U A117G | 2.01
A47C U70C | 0.23
A47G U87C | 0.42
U43C U132A | 1.82
C45A A134G | 1.72
U43C C85U | 1.32
C45U A140G | 1.42
C46U A114G | 0.49
U43C A140G | 1.95
C46U A51U | 0.64
A47G G74A | 0.21
U43C C112U | 0
U43A A135G | 1.91
U43A A135C | 1.29
U43A A135U | 2.21
U43C A63C | 2.53
A47C | 0.88
A47G | 0.96
A47U | 0.72
U43A A126G | 1.25
U43A A126U | 1.41
A47C U49C | 1.24
A47C U49G | 1.78

Variant | self-cleavage
A47U U120A | 1.19
A47U A82G | 0.21
A47G A52G | 0.87
A47G A52U | 1.73
A47G A52C | 0.5
U43C U108A | 0.02
U43C U108C | 0.02
U43A A98C | 1.91
A47U A118G | 0.76
U43C A126C | 1.95
U43C A126G | 0.73
U43C U127C | 0.89
A47C G74A | 0.17
A47C G74U | 0.15
A47G U97C | 1.08
A47G U97A | 1.21
A47U A67G | 1.23
C45U G119A | 1.99
A47U U72A | 0.13
U43C A125G | 0.53
U43C A125U | 1.56
G44U A52U | 0
C45G A51G | 1.57
